Experimental data from PMC1180672.

Experiments:
[1] = molecular target: scRPA70A (DNA-binding domain A of RPA70) (Saccharomyces cerevisiae, UniProt P22336 181-294); assay: NMR chemical shift perturbation
[2] = molecular target: hRPA70A (DNA-binding domain A of RPA70) (human, UniProt P27694 181-290); assay: NMR chemical shift perturbation
hRPA70A (DNA-binding domain A of RPA70), sequence (P27694 181-290): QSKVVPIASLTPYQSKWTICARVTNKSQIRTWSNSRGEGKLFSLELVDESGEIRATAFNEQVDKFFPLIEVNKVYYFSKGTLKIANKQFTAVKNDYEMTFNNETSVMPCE

scRPA70A (DNA-binding domain A of RPA70), sequence (P22336 181-294): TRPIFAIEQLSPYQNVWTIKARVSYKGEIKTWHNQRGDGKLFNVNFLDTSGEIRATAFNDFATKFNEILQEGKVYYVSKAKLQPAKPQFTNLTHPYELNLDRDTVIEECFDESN

GCGATTGCG (ssDNA) [TT-10]: binds [1]; binds [2].
